Laboratory results as given in patent US20240124560A1.

Assays:
[1] = target: HIV-1 Env of isolate COT6, mutant D674T (HIV-1); assay: cell-based or functional assay
[2] = target: HIV-1 Env of pseudovirus NIH-011_1056.10.TA11.1826 (HIV-1); assay: cell-based or functional assay
[3] = target: HIV-1 Env of NIH-025_ZM109F.PB4 (HIV-1); assay: cell-based or functional assay
[4] = target: HIV-1 Env of isolate NIH-082_X1193 c1 (HIV-1); assay: cell-based or functional assay
[5] = target: HIV-1 Env of NIH-010_1054.07.TC4.1499 (HIV-1); assay: cell-based or functional assay
[6] = target: HIV-1 Env of NIH-044_ZM247F.F7 (HIV-1); assay: cell-based or functional assay
[7] = target: HIV-1 Env of NAC_KNH1144 (HIV-1); assay: cell-based or functional assay
[8] = target: HIV-1 Env of NIH-053_CNE52 (HIV-1); assay: cell-based or functional assay
[9] = target: HIV-1 Env of pseudovirus NIH-002_QHO692 .42 (HIV-1); assay: cell-based or functional assay
[10] = target: HIV-1 Env of NIH-081_BJOX028000.10.3 (HIV-1); assay: cell-based or functional assay
[11] = target: HIV-1 Env of pseudovirus NIH-097_6811.v7.c18 (HIV-1); assay: cell-based or functional assay
[12] = target: HIV-1 Env of NIH-080_BJOX025000.01.1 (HIV-1); assay: cell-based or functional assay
[13] = target: HIV-1 Env of pseudovirus NIH-044_ZM247F.F7 (HIV-1); assay: cell-based or functional assay
[14] = target: HIV-1 Env of NIH-101_6540.v4.c1 (HIV-1); assay: cell-based or functional assay
[15] = target: HIV-2 C1 chimera Env (HIV-2 (HIV-1 MPER) chimera); assay: cell-based or functional assay
[16] = target: HIV-1 Env of pseudovirus NIH-064_0260.v5.c1 (HIV-1); assay: cell-based or functional assay
[17] = target: HIV-1 Env of isolate NIH-091_231965.c01 (HIV-1); assay: cell-based or functional assay
[18] = target: HIV-2 C4 chimera Env (HIV-2 (HIV-1 MPER) chimera); assay: cell-based or functional assay
[19] = target: HIV-1 Env of isolate COT6 (wild-type) (HIV-1); assay: cell-based or functional assay
[20] = target: HIV-1 Env of NIH-040_Ce703010054 2A2 (HIV-1); assay: cell-based or functional assay
[21] = target: HIV-1 Du156.12 Env (HIV-1 Du156.12); assay: cell-based or functional assay
[22] = target: HIV-1 Env of NAC_TRJO.58 (HIV-1); assay: cell-based or functional assay
[23] = target: HIV-1 Env of isolate COT6, mutant D674E (HIV-1); assay: cell-based or functional assay
[24] = target: HIV-1 Env of NHI-028_CAP210.E8 (HIV-1); assay: cell-based or functional assay
[25] = target: HIV-1 Env of NIH-018_Du172.17 (HIV-1); assay: cell-based or functional assay
[26] = target: HIV-1 Env of pseudovirus NIH-039_Ce2060 G9 (HIV-1); assay: cell-based or functional assay
[27] = target: HIV-1 Env of isolate COT6, mutant D674S (HIV-1); assay: cell-based or functional assay
[28] = target: HIV-1 Env of NIH-068_620345.c01 (HIV-1); assay: cell-based or functional assay
[29] = target: HIV-1 Env of NIH-069_C1080.c03 (HIV-1); assay: cell-based or functional assay
[30] = target: HIV-1 Env of pseudovirus NAC_JRFL (HIV-1); assay: cell-based or functional assay
[31] = target: HIV-1 Env of pseudovirus NAC_KNH1144 (HIV-1); assay: cell-based or functional assay
[32] = target: HIV-1 Env of NAC_RHPA4.7 (HIV-1); assay: cell-based or functional assay
[33] = target: HIV-1 Env of NIH-019_Du422.1 (HIV-1); assay: cell-based or functional assay
[34] = target: HIV-1 Env of pseudovirus NIH-003_SC422661.8 (HIV-1); assay: cell-based or functional assay
[35] = target: HIV-1 Env of NIH-094_3817.v2.c59 (HIV-1); assay: cell-based or functional assay
[36] = target: HIV-1 Env of pseudovirus NIH-098_89.F1 2 25 (clade CD) (HIV-1); assay: cell-based or functional assay
[37] = target: HIV-1 Env of NIH-004_PVO.4 (HIV-1); assay: cell-based or functional assay
[38] = target: HIV-1 Env of NAC_BaL.26 (HIV-1); assay: cell-based or functional assay
[39] = target: HIV-1 Env of pseudovirus NIH-019_Du422.1 (HIV-1); assay: cell-based or functional assay
[40] = target: HIV-2 C3 chimera Env (HIV-2 (HIV-1 MPER) chimera); assay: cell-based or functional assay
[41] = target: HIV-1 Env of NIH-043_ZM249M.B10 (HIV-1); assay: cell-based or functional assay
[42] = target: HIV-1 Env of NIH-052_CNE30 (HIV-1); assay: cell-based or functional assay
[43] = target: HIV-2 Env (parental virus of the chimeras) (HIV-2); assay: cell-based or functional assay
[44] = target: 4E10-specific peptide; assay: ELISA on peptide MPER (671-683), antibody titrated
[45] = target: full-length MPER peptide; assay: ELISA on peptide MPER (654-683), antibody titrated
[46] = target: HIV-1 Env of isolate Du156.12 (HIV-1); assay: cell-based or functional assay

4E10 (antibody)
Fold increase in IC50 relative to wild-type COT6 [1]: 25 fold | neutralization IC50 [2]: 0.688 µg/mL | IC80 neutralization [3]: 3.17 µg/mL | IC80 (µg/ml), TZM-bl pseudovirus neutralization [4]: 1.43 µg/mL | IC80 neutralization [5]: 5.43 µg/mL | IC80 neutralization [6]: 7.5 µg/mL | IC80 neutralization [7]: 47.9 µg/mL | IC80 neutralization [8]: 3.85 µg/mL | neutralization IC50 [9]: 6.19 µg/mL | IC80 neutralization [10]: 1.88 µg/mL | neutralization IC50 [11]: 2.74 µg/mL | IC80 neutralization [12]: 1.59 µg/mL | neutralization IC50 [13]: 1.85 µg/mL | IC80 neutralization [14]: 36.1 µg/mL | IC50 (µg/ml), neutralization of chimeric virus [15]: 0.8 µg/mL | neutralization IC50 [16]: 0.227 µg/mL | IC80 (µg/ml), TZM-bl pseudovirus neutralization [17]: > 50 µg/mL | IC50 (µg/ml), neutralization of chimeric virus [18]: 1.41 µg/mL | Fold increase in IC50 (wild-type COT6, the reference) [19]: 1 fold | IC80 neutralization [20]: 12.5 µg/mL | IC50 (µg/ml), neutralization of HIV-1 Du156.12 [21]: 0.101 µg/mL | IC80 neutralization [22]: 11.6 µg/mL | Fold increase in IC50 relative to wild-type COT6 [23]: 10 fold | IC80 neutralization [24]: 3.53 µg/mL | IC80 neutralization [25]: 0.474 µg/mL | neutralization IC50 [26]: 1.24 µg/mL | Fold increase in IC50 relative to wild-type COT6 [27]: 1.65 fold | IC80 neutralization [28]: 3.06 µg/mL | IC80 neutralization [29]: 1.36 µg/mL | neutralization IC50 [30]: 17.8 µg/mL | neutralization IC50 [31]: 11.5 µg/mL | IC80 neutralization [32]: 19.3 µg/mL | IC80 neutralization [33]: 5.66 µg/mL | neutralization IC50 [34]: 2.78 µg/mL | IC80 neutralization [35]: 2.12 µg/mL | IC50 (µg/ml), TZM-bl cell neutralization assay, pseudovirus [36]: 5.11 µg/mL | IC80 neutralization [37]: 38.7 µg/mL | IC80 neutralization [38]: 17.1 µg/mL | neutralization IC50 [39]: 1.42 µg/mL | IC50 (µg/ml), neutralization of chimeric virus [40]: > 10 µg/mL | IC80 neutralization [41]: 4.55 µg/mL | IC80 neutralization [42]: 16.6 µg/mL | IC50 (µg/ml), neutralization of HIV-2 [43]: > 10 µg/mL | EC50 (read off the curve) [44]: 0.02 µg/mL | EC50 (read off the curve) [45]: 0.03 µg/mL

PGZL1 (antibody)
neutralization IC50 [2]: 3.72 µg/mL | IC80 neutralization [3]: 29.7 µg/mL | IC80 (µg/ml), TZM-bl pseudovirus neutralization [4]: 21.3 µg/mL | IC80 neutralization [5]: 20.2 µg/mL | IC80 neutralization [6]: 48.2 µg/mL | IC80 neutralization [7]: > 50 µg/mL | IC80 neutralization [8]: > 50 µg/mL | neutralization IC50 [9]: 42 µg/mL | IC80 neutralization [10]: 20.9 µg/mL | neutralization IC50 [11]: > 50 µg/mL | IC80 neutralization [12]: 29.3 µg/mL | IC80 neutralization [14]: > 50 µg/mL | neutralization IC50 [16]: > 50 µg/mL | IC80 (µg/ml), TZM-bl pseudovirus neutralization [17]: > 50 µg/mL | IC80 neutralization [20]: > 50 µg/mL | IC80 neutralization [22]: > 50 µg/mL | IC80 neutralization [24]: > 50 µg/mL | IC80 neutralization [25]: 1.6 µg/mL | neutralization IC50 [26]: 15 µg/mL | IC80 neutralization [28]: > 50 µg/mL | IC80 neutralization [29]: 6.93 µg/mL | neutralization IC50 [30]: > 50 µg/mL | neutralization IC50 [31]: > 50 µg/mL | IC80 neutralization [32]: > 50 µg/mL | IC80 neutralization [33]: 30.5 µg/mL | neutralization IC50 [34]: 16.8 µg/mL | IC80 neutralization [35]: > 50 µg/mL | IC50 (µg/ml), TZM-bl cell neutralization assay, pseudovirus [36]: > 50 µg/mL | IC80 neutralization [37]: > 50 µg/mL | IC80 neutralization [38]: > 50 µg/mL | neutralization IC50 [39]: 7.51 µg/mL | IC80 neutralization [41]: 25.6 µg/mL | IC80 neutralization [42]: > 50 µg/mL | EC50 (read off the curve) [44]: 0.02 µg/mL | EC50 (read off the curve) [45]: 0.02 µg/mL

VRC01 (antibody)
Fold increase in IC50 relative to wild-type COT6 [1]: 1 fold | neutralization IC50 [2]: 0.372 µg/mL | IC80 neutralization [3]: 0.296 µg/mL | IC80 (µg/ml), TZM-bl pseudovirus neutralization [4]: 0.408 µg/mL | IC80 neutralization [5]: 3.62 µg/mL | IC80 neutralization [6]: 0.945 µg/mL | IC80 neutralization [7]: 0.535 µg/mL | IC80 neutralization [8]: 0.565 µg/mL | neutralization IC50 [9]: 1.96 µg/mL | IC80 neutralization [10]: 0.573 µg/mL | neutralization IC50 [11]: 0.14 µg/mL | IC80 neutralization [12]: 24.8 µg/mL | neutralization IC50 [13]: 0.236 µg/mL | IC80 neutralization [14]: > 50 µg/mL | neutralization IC50 [16]: 0.124 µg/mL | IC80 (µg/ml), TZM-bl pseudovirus neutralization [17]: 0.743 µg/mL | Fold increase in IC50 (wild-type COT6, the reference) [19]: 1 fold | IC80 neutralization [20]: 0.595 µg/mL | IC80 neutralization [22]: 0.223 µg/mL | Fold increase in IC50 relative to wild-type COT6 [23]: 1.2 fold | IC80 neutralization [24]: > 50 µg/mL | IC80 neutralization [25]: > 50 µg/mL | Fold change (IC50 wash)/(IC50 no wash) [46]: 1.5 fold | IC50 (µg/ml), no wash [46]: 0.11 µg/mL | IC50 (µg/ml), wash [46]: 0.16 µg/mL | neutralization IC50 [26]: 0.109 µg/mL | IC80 neutralization [28]: > 50 µg/mL | IC80 neutralization [29]: 5.7 µg/mL | neutralization IC50 [30]: 0.141 µg/mL | neutralization IC50 [31]: 0.134 µg/mL | IC80 neutralization [32]: 0.137 µg/mL | IC80 neutralization [33]: > 50 µg/mL | neutralization IC50 [34]: 0.124 µg/mL | IC80 neutralization [35]: > 50 µg/mL | IC50 (µg/ml), TZM-bl cell neutralization assay, pseudovirus [36]: > 50 µg/mL | IC80 neutralization [37]: 0.79 µg/mL | IC80 neutralization [38]: 0.037 µg/mL | neutralization IC50 [39]: > 50 µg/mL | IC80 neutralization [41]: 0.275 µg/mL | IC80 neutralization [42]: 2.38 µg/mL
